Measured values as given in US20250057968A1, “ANTI-DLL3 ANTIBODY AND PHARMACEUTICAL USE THEREOF, AND ANTIBODY-DRUG CONJUGATE CONTAINING ANTI-DLL3 ANTIBODY” (Jiangsu Hengrui Pharmaceuticals Co., Ltd., priority 2021, published 2025).

B1: Hu6 (antibody, human IgG1, kappa, V domains shown)
VH: EVQLVQSGSELKKPGASVKVSCKASGYTFTDYYMNWVRQAPGQGLEWMGIINPYSGVTIYNHKFKGRFALSVDKSSNTAYLQISSLKAEDTAVYYCARQDSLLDYAMDYWGQGTTVTVSS
VL: DIQMTQSPSSLSASVGDRVTITCHASQGISGNMGWLQQKPGKAPKGLIYHGANLEDGVPSRFSGSGSGADYTLTISSLQPEDFADYYCVQYAQFPYTFGGGTKVEIKR
notes: also called hAb6L4H12
B2: Hu100 (antibody, human IgG1, kappa, V domains shown)
VH: EVQLVESGGGLVKPGGSLRLSCAASGFTFSDSGMHWIRQAPGKGLEWVSYISSGSSTIHYADTVKGRFTISRDNAKNSLYLQMNSLRAEDTAVYYCASPLYYYGRSYNAVAYWGQGTTVTVSS
VL: DIQMTQSPSSLSASVGDRVTITCHASQNINVWLSWYQQKPGKVPKLLIYKASDLHTGVPSRFSGSGSGTDFTLTISSLQPEDVATYYCQQGQSYPLTFGGGTKVEIKR
notes: also called hAb100L1H1

Experiments:
[1] = molecular target: T1, Human DLL3 full-length protein on cells (human, UniProt Q9NYJ7 27-618); assay: FACS on H1184 cells
T1 construct: H1184 and DMS53 express DLL3 themselves; The cell line is named under assay; also called H1184 cells; DLL3/H82
T1 sequence: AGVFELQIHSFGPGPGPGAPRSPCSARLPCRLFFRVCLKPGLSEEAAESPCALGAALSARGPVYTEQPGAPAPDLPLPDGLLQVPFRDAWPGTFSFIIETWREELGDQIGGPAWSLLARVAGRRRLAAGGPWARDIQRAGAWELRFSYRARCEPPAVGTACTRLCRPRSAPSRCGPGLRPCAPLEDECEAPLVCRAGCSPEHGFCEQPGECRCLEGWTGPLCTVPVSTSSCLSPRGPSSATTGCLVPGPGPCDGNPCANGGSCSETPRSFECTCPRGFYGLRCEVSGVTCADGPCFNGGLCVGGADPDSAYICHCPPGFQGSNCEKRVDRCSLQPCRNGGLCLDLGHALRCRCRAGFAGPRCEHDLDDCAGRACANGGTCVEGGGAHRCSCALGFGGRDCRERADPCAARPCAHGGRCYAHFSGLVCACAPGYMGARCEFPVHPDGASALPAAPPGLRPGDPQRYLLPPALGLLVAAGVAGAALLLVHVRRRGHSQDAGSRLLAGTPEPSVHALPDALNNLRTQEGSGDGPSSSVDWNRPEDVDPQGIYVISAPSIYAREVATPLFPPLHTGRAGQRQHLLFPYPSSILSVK
Protocol: (§1) Cells of the DLL3-expressing small cell lung cancer cell lines H1184 (ATCC, Cat. No. CRL-5858), DLL3/H82, cynoDLL3/CHO-s, and RatDLL3/CHO-s were suspended at 1×10^6/mL in FACS buffer (1% BSA+pH 7.4 PBS), and the cell suspensions were added to a 96-well round-bottom plate (Corning, 3795) at 100 μL/well. The plate was centrifuged at 300 g for 5 min, and the supernatant was removed. Different concentrations of test antibodies were added at 100 μL/well. The plate was incubated in the dark in a refrigerator at 4° C. for 1 h. After 3 washes by centrifugation at 300 g, working concentrations of APC anti-human IgG Fc (BioLegend, 410712) or PE F(ab′)2-goat anti-human IgG (invitrogen, H10104) were added. The plate was incubated in the dark in a refrigerator at 4° C. for 40 min. After 3 washes by centrifugation at 300 g, the geometric mean fluorescence intensity was measured on an Invitrogen flow cytometer, and the EC50 values of the antibodies in binding to DLL3-expressing cells were calculated.

[2] = molecular target: T1, Human DLL3 full-length protein on cells; assay: cell-based or functional assay
[3] = molecular target: T2, Human DLL4 full-length protein on CHO-s cells (human, UniProt Q9NR61 27-685); assay: FACS on human DLL4/CHO-s cells
T2 construct: also called human DLL4/CHO-s
Protocol: Stably transfected human DLL1/CHO-s and human DLL4/CHO-s cells were suspended at 1×10⁶/mL in FACS buffer (containing 1% BSA and pH 7.4 PBS), and the cell suspensions were added to a 96-well round-bottom plate (Corning, 3795) at 100 µL/well. The plate was centrifuged at 300 g for 5 min, and the supernatant was removed. Test antibodies were added at 100 μL/well, and the plate was incubated in the dark in a refrigerator at 4° C. for 1 h. After 3 washes by centrifugation at 300 g, working concentrations of PE F(ab′)2-goat anti-human IgG Fc secondary antibody (invitrogen, H10104) were added. The plate was incubated in the dark in a refrigerator at 4° C. for 40 min. After 3 washes by centrifugation at 300 g, the geometric mean fluorescence intensity was measured on an Invitrogen flow cytometer.

[4] = molecular target: T3, Cynomolgus monkey DLL3 full-length protein on CHO-s cells (cynomolgus monkey, UniProt Q9NYJ7 27-618 (human entry)); assay: FACS on cynoDLL3/CHO-s cells
T3 construct: also called cynoDLL3/CHO-s
T3 chain: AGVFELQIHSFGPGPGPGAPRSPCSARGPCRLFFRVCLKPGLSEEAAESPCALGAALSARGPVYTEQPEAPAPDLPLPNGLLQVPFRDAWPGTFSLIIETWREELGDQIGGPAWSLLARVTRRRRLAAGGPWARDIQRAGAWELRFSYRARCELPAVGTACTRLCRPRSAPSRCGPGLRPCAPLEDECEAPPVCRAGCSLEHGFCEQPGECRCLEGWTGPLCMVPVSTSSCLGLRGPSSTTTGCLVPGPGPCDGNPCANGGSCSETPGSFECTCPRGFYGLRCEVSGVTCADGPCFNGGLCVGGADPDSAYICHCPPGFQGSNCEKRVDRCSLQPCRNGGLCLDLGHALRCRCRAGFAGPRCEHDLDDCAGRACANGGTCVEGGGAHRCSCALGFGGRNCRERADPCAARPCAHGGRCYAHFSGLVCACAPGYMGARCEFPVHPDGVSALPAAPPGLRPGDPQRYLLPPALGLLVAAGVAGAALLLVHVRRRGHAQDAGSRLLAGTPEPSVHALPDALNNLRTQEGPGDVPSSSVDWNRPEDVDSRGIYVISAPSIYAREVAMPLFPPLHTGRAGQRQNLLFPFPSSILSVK
Protocol: as §1

[5] = molecular target: cynomolgus monkey DLL3 (KACTUS, DLL-RM103) (cynomolgus monkey); assay: SPR (Biacore 8K), antibody captured on Protein A chip, 1:1 fit

T2 sequence (Q9NR61 27-685 limits assumed): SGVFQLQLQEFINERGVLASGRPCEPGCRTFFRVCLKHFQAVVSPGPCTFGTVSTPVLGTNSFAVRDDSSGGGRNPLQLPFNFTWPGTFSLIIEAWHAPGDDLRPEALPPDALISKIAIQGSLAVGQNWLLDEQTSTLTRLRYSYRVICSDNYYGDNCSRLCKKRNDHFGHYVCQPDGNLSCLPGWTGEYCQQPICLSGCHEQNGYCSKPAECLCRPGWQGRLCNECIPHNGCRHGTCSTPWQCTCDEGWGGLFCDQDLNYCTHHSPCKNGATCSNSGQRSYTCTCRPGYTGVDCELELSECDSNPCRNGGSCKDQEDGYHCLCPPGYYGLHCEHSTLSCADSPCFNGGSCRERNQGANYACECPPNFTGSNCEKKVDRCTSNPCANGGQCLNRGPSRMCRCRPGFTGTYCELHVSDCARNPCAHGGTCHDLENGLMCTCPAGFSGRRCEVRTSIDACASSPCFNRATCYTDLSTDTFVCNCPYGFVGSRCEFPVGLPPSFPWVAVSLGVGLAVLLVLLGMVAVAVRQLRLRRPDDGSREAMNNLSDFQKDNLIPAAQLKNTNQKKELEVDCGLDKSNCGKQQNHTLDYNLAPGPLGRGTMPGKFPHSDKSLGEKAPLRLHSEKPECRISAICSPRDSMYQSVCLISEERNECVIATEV

Binder	EC50 [1] [nM]	Emax [1]	IC50 (nM), cell killing caused by endocytosis of antibodies (DT3C, DMS53/DLL3 cells) [2] [nM]	Imax, cell killing caused by endocytosis of antibodies (DT3C, DMS53/DLL3 cells) [2]	binding result [3]	EC50 [4] [nM]	Emax [4]	Kd [5] [nM]
B1	0.06	2070	0.56	87.2	no binding	0.32	1760	1.31
B2	0.15	2110	1.47	86.1	no binding	0.55	2080	1.11
